pKd: −log10 of the molar value.

Assay [1] concerns the target human β2-appendage (700–937) used for ITC (human) (UniProt P63010). The assay can be described thus: ITC; VP-ITC; 100 mM HEPES, 50 mM NaCl, 2 mM DTT pH 7.4 at 10 °C; peptides or proteins injected from the syringe into the cell. A general note: In ITC the heat of successive injections is recorded.
Another assay has as its target epsinR peptide. The assay can be described thus: ITC. The settings on record: stoichiometry (1.3).

human β2-appendage (700–937) used for ITC (human), sequence (P63010 700-937): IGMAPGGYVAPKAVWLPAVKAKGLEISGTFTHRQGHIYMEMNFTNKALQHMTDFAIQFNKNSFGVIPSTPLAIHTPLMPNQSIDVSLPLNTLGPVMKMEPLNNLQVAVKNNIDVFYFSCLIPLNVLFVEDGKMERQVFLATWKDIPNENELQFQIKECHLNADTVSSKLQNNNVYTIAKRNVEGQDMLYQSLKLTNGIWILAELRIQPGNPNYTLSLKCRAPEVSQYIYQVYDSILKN
human β2-appendage (700–937) used for ITC, sequence (P63010 whole entry Y888V, looked up, tested part not stated): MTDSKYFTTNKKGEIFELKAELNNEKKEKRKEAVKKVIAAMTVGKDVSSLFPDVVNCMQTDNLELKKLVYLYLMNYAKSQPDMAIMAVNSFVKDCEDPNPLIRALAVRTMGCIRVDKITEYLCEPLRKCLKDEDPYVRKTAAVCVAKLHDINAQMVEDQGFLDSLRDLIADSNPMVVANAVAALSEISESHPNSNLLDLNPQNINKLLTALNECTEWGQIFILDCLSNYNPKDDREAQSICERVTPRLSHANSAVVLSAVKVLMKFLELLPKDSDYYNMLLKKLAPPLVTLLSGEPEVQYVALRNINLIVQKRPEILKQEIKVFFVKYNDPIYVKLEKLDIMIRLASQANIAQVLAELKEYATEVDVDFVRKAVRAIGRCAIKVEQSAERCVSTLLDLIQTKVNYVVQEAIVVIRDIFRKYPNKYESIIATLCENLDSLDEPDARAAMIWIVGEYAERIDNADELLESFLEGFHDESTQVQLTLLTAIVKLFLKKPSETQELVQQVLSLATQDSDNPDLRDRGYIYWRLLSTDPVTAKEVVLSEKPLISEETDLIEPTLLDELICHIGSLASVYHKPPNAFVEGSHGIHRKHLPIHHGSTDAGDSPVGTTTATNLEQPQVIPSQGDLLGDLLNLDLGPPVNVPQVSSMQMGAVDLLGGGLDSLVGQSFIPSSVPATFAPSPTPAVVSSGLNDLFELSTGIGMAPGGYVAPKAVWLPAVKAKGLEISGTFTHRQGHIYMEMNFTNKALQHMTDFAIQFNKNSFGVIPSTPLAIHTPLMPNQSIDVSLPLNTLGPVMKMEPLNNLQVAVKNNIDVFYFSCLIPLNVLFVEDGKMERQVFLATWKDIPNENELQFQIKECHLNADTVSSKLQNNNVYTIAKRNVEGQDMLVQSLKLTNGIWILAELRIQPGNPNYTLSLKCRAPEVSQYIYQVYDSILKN

As for epsinR peptide, the pKd – broadly, −log10 of the Kd, conventionally taken in molar units – in assay [1] was 4.10. “human β2-appendage (700–937) used for ITC (from UniProt P63010) Y888V” gave a pKd with epsinR peptide of 4.11.
